# Reference: PMC12225977 (PLOS Computational Biology, 2025)
# B1: Francisella tularensis dihydrolipoyl dehydrogenase (IPD) (enzyme)
# chain: MSDIKTQVVVLGSGPGGYSAAFRAADLGLEVVLVERYAEIGGVCLNVGCIPSKAMLHIAKVINEARHLESLGIIEMGGLKINRENLLKYKDGVIGKLTGGLKGMAQMRKVKIVQGYGKFTSDKELAVEAADGKVTKIAFDNCIIAAGSSVIKLPFVPEDDRIIDSTGALEMKEIPETMLVVGGGIIGLEMAQVYSELGTKITVVEFADQLMNGVDKDLVKAYQKVNSRYDVRLKTAVTAMEAKEDGIYVTMEGDHPAKDERFDRVLMAIGRKPNGKLIDAEKAGVKVDERGFIPVDKQLRTNVPHIFAIGDIVGQPMLAHKAVPEGRTAAEVISGLNHSFDPLVIPSVAYTDPEVAWVGETETSAKAKGIKYEKGVFPWAASGRSLSIDRSEGMTKILFDENHKIIGASIVGTHAGELISEAAIAIEMGCDAEDIALTVHPHPTLSESLMMATEVYEGTATDLPPQKKKK
# notes: also called Francisella IPD; MGH6-IPD
# Target: the molecule itself
# Assay: native MS
protein,measurement,value
B1,stoichiometry N,2
